Measured values from publication PMC11884936, “MDC1 mediates Pellino recruitment to sites of DNA double-strand breaks” (Life Science Alliance, 2025).
Square brackets hold non-standard residues; d marks the D form. pT = C[C@@H](OP(=O)(O)O)[C@H](N)C(=O)O; pS = N[C@@H](COP(=O)(O)O)C(=O)O

T1: Pellino 1 FHA (PELI1 residues 13-273) (human, UniProt Q96FA3 13-273)
T1 construct: Cloned into pGEX-6P1; same preparation for ITC and crystallography by the methods; also called PELI1 (13–273); N-terminal PELI1 fragment; source: E. coli BL21 (DE3), purified (Glutathione Sepharose, 3C cleavage, gel filtration); not shown: GST, N-terminal, cleaved
T1 sequence (looked up): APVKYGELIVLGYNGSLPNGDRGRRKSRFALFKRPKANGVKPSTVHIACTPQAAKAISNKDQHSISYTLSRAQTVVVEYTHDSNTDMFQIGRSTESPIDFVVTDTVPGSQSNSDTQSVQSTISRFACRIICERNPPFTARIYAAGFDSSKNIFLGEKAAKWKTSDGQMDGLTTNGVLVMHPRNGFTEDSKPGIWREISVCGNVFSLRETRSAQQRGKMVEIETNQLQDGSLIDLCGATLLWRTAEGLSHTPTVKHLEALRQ

T2: Pellino 2 FHA (PELI2 residues 15-275) (human, UniProt Q9HAT8 15-275)
T2 construct: Cloned into pGEX-6P1; also called PELI2 (15–273); N-terminal PELI2 fragment; source: E. coli BL21 (DE3), purified (Glutathione Sepharose, 3C cleavage, gel filtration); not shown: GST, N-terminal, cleaved
T2 sequence (looked up): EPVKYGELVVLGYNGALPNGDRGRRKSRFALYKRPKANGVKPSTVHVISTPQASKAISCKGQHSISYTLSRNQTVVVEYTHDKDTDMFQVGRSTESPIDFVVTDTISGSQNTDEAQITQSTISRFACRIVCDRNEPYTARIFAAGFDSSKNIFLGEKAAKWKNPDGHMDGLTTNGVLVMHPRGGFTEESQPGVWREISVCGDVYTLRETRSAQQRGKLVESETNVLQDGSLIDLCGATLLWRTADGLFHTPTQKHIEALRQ


Tests used:
Experiment in all cases: ITC; peptide in the syringe (typically 160 μM), protein in the cell (16 μM); 25 mM HEPES pH 7.0, 200 mM NaCl, 1 mM TCEP; single-site binding model
Settings in all cases: both partners purified
[1] = target: T1, Pellino 1 FHA (PELI1 residues 13-273)
[2] = target: T2, Pellino 2 FHA (PELI2 residues 15-275)
[3] = target: T3, MDC1 BRCT-repeat fragment (human)
T3 construct: MDC1, BRCT-repeat fragment; source: purified

Kd [1] [nM] | dH [1] [kJ/mol] | stoichiometry N [1] | Kd [2] [nM] | dH [2] [kJ/mol] | stoichiometry N [2] | Kd [3] [nM] | dH [3] [kJ/mol] | stoichiometry N [3] | Binder
2010 | -77.5 | 0.36 | 1120 | -83.4 | 0.55 |  |  |  | Ac-AYDLQA[pT]QCFA-NH2 (SMILES CC(=O)N[C@@H](C)C(=O)N[C@@H](Cc1ccc(O)cc1)C(=O)N[C@@H](CC(=O)O)C(=O)N[C@@H](CC(C)C)C(=O)N[C@@H](CCC(N)=O)C(=O)N[C@@H](C)C(=O)N[C@H](C(=O)N[C@@H](CCC(N)=O)C(=O)N[C@@H](CS)C(=O)N[C@@H](Cc1ccccc1)C(=O)N[C@@H](C)C(N)=O)[C@@H](C)OP(=O)(O)O, human MDC1, stretch around T699 with alanine at pT+4; source: synthetic peptide) [MDC1-pT699 phosphopeptide for ITC (AYDLQApTQCFA)]
420 | -72.6 | 0.7 | 700 | -108 | 0.59 |  |  |  | Ac-AYSSAS[pT]FLYP-NH2 (SMILES CC(=O)N[C@@H](C)C(=O)N[C@@H](Cc1ccc(O)cc1)C(=O)N[C@@H](CO)C(=O)N[C@@H](CO)C(=O)N[C@@H](C)C(=O)N[C@@H](CO)C(=O)N[C@H](C(=O)N[C@@H](Cc1ccccc1)C(=O)N[C@@H](CC(C)C)C(=O)N[C@@H](Cc1ccc(O)cc1)C(=O)N1CCC[C@H]1C(N)=O)[C@@H](C)OP(=O)(O)O, two N-terminal residues as in the other ITC peptides; IRAK1, stretch around T141 with tyrosine at pT+3; also called IRAK-pT141(+3Y); source: synthetic peptide) [IRAK1-pT141(+3Y) phosphopeptide (AYSSASpTFLYP)]
1140 | -91.2 | 0.78 | 1220 | -145 | 0.52 |  |  |  | Ac-AYEDEP[pT]QAFA-NH2 (SMILES CC(=O)N[C@@H](C)C(=O)N[C@@H](Cc1ccc(O)cc1)C(=O)N[C@@H](CCC(=O)O)C(=O)N[C@@H](CC(=O)O)C(=O)N[C@@H](CCC(=O)O)C(=O)N1CCC[C@H]1C(=O)N[C@H](C(=O)N[C@@H](CCC(N)=O)C(=O)N[C@@H](C)C(=O)N[C@@H](Cc1ccccc1)C(=O)N[C@@H](C)C(N)=O)[C@@H](C)OP(=O)(O)O) [MDC1-pT719 phosphopeptide for ITC (AYEDEPpTQAFA)]
 |  |  |  |  |  | 850 | -58.2 | 0.6 | Ac-GGKATQA[pS]QEY-NH2 (SMILES CC(=O)NCC(=O)NCC(=O)N[C@@H](CCCCN)C(=O)N[C@@H](C)C(=O)N[C@H](C(=O)N[C@@H](CCC(N)=O)C(=O)N[C@@H](C)C(=O)N[C@@H](COP(=O)(O)O)C(=O)N[C@@H](CCC(N)=O)C(=O)N[C@@H](CCC(=O)O)C(=O)N[C@@H](Cc1ccc(O)cc1)C(N)=O)[C@@H](C)O) [H2AX-pS139 phosphopeptide for ITC (GGKATQApSQEY)]
1140 | -77.2 | 0.74 | 1060 | -118 | 0.69 |  |  |  | Ac-AYEVLA[pT]QPFC-NH2 (SMILES CC(=O)N[C@@H](C)C(=O)N[C@@H](Cc1ccc(O)cc1)C(=O)N[C@@H](CCC(=O)O)C(=O)N[C@H](C(=O)N[C@@H](CC(C)C)C(=O)N[C@@H](C)C(=O)N[C@H](C(=O)N[C@@H](CCC(N)=O)C(=O)N1CCC[C@H]1C(=O)N[C@@H](Cc1ccccc1)C(=O)N[C@@H](CS)C(N)=O)[C@@H](C)OP(=O)(O)O)C(C)C, two N-terminal residues that are not the MDC1 residues at this place; human MDC1, stretch around T752; Natural stretch with two added N-terminal residues (AY); source: synthetic peptide) [MDC1-pT752 phosphopeptide for ITC (AYEVLApTQPFC)]
230 | -92.1 | 0.62 | 370 | -137 | 0.69 |  |  |  | Ac-AYEDSE[pT]QPFD-NH2 (SMILES CC(=O)N[C@@H](C)C(=O)N[C@@H](Cc1ccc(O)cc1)C(=O)N[C@@H](CCC(=O)O)C(=O)N[C@@H](CC(=O)O)C(=O)N[C@@H](CO)C(=O)N[C@@H](CCC(=O)O)C(=O)N[C@H](C(=O)N[C@@H](CCC(N)=O)C(=O)N1CCC[C@H]1C(=O)N[C@@H](Cc1ccccc1)C(=O)N[C@@H](CC(=O)O)C(N)=O)[C@@H](C)OP(=O)(O)O, two N-terminal residues that are not the MDC1 residues at this place; human MDC1, stretch around T765; Natural stretch with two added N-terminal residues (AY); The crystallisation methods name only 'the MDC1-pT765 phosphopeptide'; also called MDC1-pT765 (Site 4) phosphopeptide; MDC1 p765 peptide; source: synthetic peptide) [MDC1-pT765 phosphopeptide for ITC and crystallisation (AYEDSEpTQPFD)]
